{"source": "patent US5578310A", "about": "“Topical bioadhesive ointment compositions and their use in wound healing” (Berlex Laboratories Inc., priority 1994, dated 1996)", "assay": "In vivo uptake and tissue distribution of 125I-TGFα from TJ-TGFα formulation on wounded cheek pouch", "parameters": "species or system Golden Syrian hamsters", "settings": "for Distribution of 125I-TGFα in the Tissues: Kidney / Distribution of 125I-TGFα in the Tissues: Liver / Distribution of 125I-TGFα in the Tissues: Small Intestine / Distribution of 125I-TGFα in the Tissues: Stomach / Distribution of 125I-TGFα in the Tissues: Submaxillary Gland / Distribution of 125I-TGFα in the Tissues: Thyroid / Distribution of 125I-TGFα in the Tissues: Tongue / Distribution of 125I-TGFα in the Tissues: Blood / Distribution of 125I-TGFα in the Tissues: Cecum / Distribution of 125I-TGFα in the Tissues: Colon / Distribution of 125I-TGFα in the Tissues: Esophagus: cheek pouch wound; for Distribution of 125I-TGFα in the Tissues: Cheek Pouch: right-hand side cheek pouch (application site); for Distribution of 125I-TGFα in the Tissues: Skin: 25 cm^2 skin on back", "source_text": "The TGFα-containing ointment composition of Example 2 (TJ-TGFα formulation) was subjected, both in vitro and in vivo, to evaluation to meet the therapeutical requirements for oral mucositis. The in vitro evaluation included TGFα release and extraction from the composition, autoclave sterilizability and the bioactivity and stability of TGFα in the composition. The in vivo evaluation included TGFα uptake and tissue distribution of absorbed TGFα from hamster's cheek pouch.\nB. The in vivo uptake of TGFα from the TJ-TGFα formulation was determined in Golden Syrian hamsters, female, approximately 150 g using an ^125 I-TGFα formulation (specific activity-45 μci/μg), the hamster's cheek pouch having a mechanically created wound. A pharmacokinetic study of tissue distribution of TGFα absorbed by the hamsters was also conducted. The methods employed were as follows:\n1. Fast hamsters overnight.\n2. Anesthetize hamsters by I.M. injection of ketamine HCl.\n3. Create a 2 mm diameter wound on the right-hand side of hamster's cheek pouch by a biopsy punch.\n4. Following the removal of the debridement and blood clot, administer 20 μl TJ-TGFα formulation containing 26 μci 125I-TGFα onto the wound area by a Gilson Microman.\n5. Keep the hamsters in their cages and give no water or food during the course of 6 hours study.\n6. Select three hamsters at time 15 minutes, 30 minutes, 1 hour, 2 hours, 4 hours and 6 hours and select one hamster at 24 hours for TGFα uptake and tissue distribution study.\n7. Punch a needle into the hamster's heart and withdrawn 1 ml blood by a 5 ml syringe.\n8. Sacrifice hamster by inhalation of an overdose of carbon dioxide vapor from dry ice in a closed chamber.\n9. Immediately after sacrificing, remove the liver, kidney, thyroid, submaxillary gland, esophagus, stomach, small intestine, cecum, colon, 25 cm^2 skin on back, tongue and right-hand side of cheek pouch.\n11. Count the CPM of ^125 I-TGFα that distributed in the hamster's tissue and GI contents."}
{"substance": "^125 I-TGFα: 125I-labelled TGFα (specific activity 45 μci/μg) administered in TJ-TGFα formulation onto the hamster cheek pouch wound", "values": [{"measurement": "Distribution of 125I-TGFα in the Tissues: Kidney", "setting": "1 hr.", "result": 0.07, "unit": "%"}, {"measurement": "Distribution of 125I-TGFα in the Tissues: Liver", "setting": "1 hr.", "result": 0.09, "unit": "%"}, {"measurement": "Distribution of 125I-TGFα in the Tissues: Small Intestine", "setting": "1 hr.", "result": 0.04, "unit": "%"}, {"measurement": "Distribution of 125I-TGFα in the Tissues: Stomach", "setting": "1 hr.", "result": 0.05, "unit": "%"}, {"measurement": "Distribution of 125I-TGFα in the Tissues: Submaxillary Gland", "setting": "1 hr.", "result": 0.04, "unit": "%"}, {"measurement": "Distribution of 125I-TGFα in the Tissues: Thyroid", "setting": "1 hr.", "result": 0.02, "unit": "%"}, {"measurement": "Distribution of 125I-TGFα in the Tissues: Tongue", "setting": "1 hr.", "result": 4.82, "unit": "%"}, {"measurement": "Distribution of 125I-TGFα in the Tissues: Cheek Pouch", "setting": "1 hr.", "result": 70, "unit": "%"}, {"measurement": "Distribution of 125I-TGFα in the Tissues: Skin", "setting": "2 hrs.", "result": 0.10, "unit": "%"}, {"measurement": "Distribution of 125I-TGFα in the Tissues: Blood", "setting": "2 hrs.", "result": 0.05, "unit": "%"}, {"measurement": "Distribution of 125I-TGFα in the Tissues: Cecum", "setting": "2 hrs.", "result": 0.06, "unit": "%"}, {"measurement": "Distribution of 125I-TGFα in the Tissues: Colon", "setting": "2 hrs.", "result": 0.06, "unit": "%"}, {"measurement": "Distribution of 125I-TGFα in the Tissues: Esophagus", "setting": "2 hrs.", "result": 0.01, "unit": "%"}, {"measurement": "Distribution of 125I-TGFα in the Tissues: Kidney", "setting": "2 hrs.", "result": 0.14, "unit": "%"}, {"measurement": "Distribution of 125I-TGFα in the Tissues: Liver", "setting": "2 hrs.", "result": 0.17, "unit": "%"}, {"measurement": "Distribution of 125I-TGFα in the Tissues: Small Intestine", "setting": "2 hrs.", "result": 0.07, "unit": "%"}, {"measurement": "Distribution of 125I-TGFα in the Tissues: Stomach", "setting": "2 hrs.", "result": 0.10, "unit": "%"}, {"measurement": "Distribution of 125I-TGFα in the Tissues: Submaxillary Gland", "setting": "2 hrs.", "result": 0.20, "unit": "%"}, {"measurement": "Distribution of 125I-TGFα in the Tissues: Thyroid", "setting": "2 hrs.", "result": 0.14, "unit": "%"}, {"measurement": "Distribution of 125I-TGFα in the Tissues: Tongue", "setting": "2 hrs.", "result": 3.57, "unit": "%"}, {"measurement": "Distribution of 125I-TGFα in the Tissues: Cheek Pouch", "setting": "2 hrs.", "result": 74, "unit": "%"}, {"measurement": "Distribution of 125I-TGFα in the Tissues: Skin", "setting": "4 hrs.", "result": 0.14, "unit": "%"}, {"measurement": "Distribution of 125I-TGFα in the Tissues: Blood", "setting": "4 hrs.", "result": 0.13, "unit": "%"}, {"measurement": "Distribution of 125I-TGFα in the Tissues: Cecum", "setting": "4 hrs.", "result": 0.04, "unit": "%"}, {"measurement": "Distribution of 125I-TGFα in the Tissues: Colon", "setting": "4 hrs.", "result": 0.13, "unit": "%"}, {"measurement": "Distribution of 125I-TGFα in the Tissues: Esophagus", "setting": "4 hrs.", "result": 0.26, "unit": "%"}, {"measurement": "Distribution of 125I-TGFα in the Tissues: Kidney", "setting": "4 hrs.", "result": 0.23, "unit": "%"}, {"measurement": "Distribution of 125I-TGFα in the Tissues: Liver", "setting": "4 hrs.", "result": 0.26, "unit": "%"}, {"measurement": "Distribution of 125I-TGFα in the Tissues: Small Intestine", "setting": "4 hrs.", "result": 0.12, "unit": "%"}, {"measurement": "Distribution of 125I-TGFα in the Tissues: Stomach", "setting": "4 hrs.", "result": 0.74, "unit": "%"}, {"measurement": "Distribution of 125I-TGFα in the Tissues: Submaxillary Gland", "setting": "4 hrs.", "result": 0.42, "unit": "%"}, {"measurement": "Distribution of 125I-TGFα in the Tissues: Thyroid", "setting": "4 hrs.", "result": 0.39, "unit": "%"}, {"measurement": "Distribution of 125I-TGFα in the Tissues: Tongue", "setting": "4 hrs.", "result": 3.37, "unit": "%"}, {"measurement": "Distribution of 125I-TGFα in the Tissues: Cheek Pouch", "setting": "4 hrs.", "result": 74, "unit": "%"}, {"measurement": "Distribution of 125I-TGFα in the Tissues: Skin", "setting": "6 hrs.", "result": 0.13, "unit": "%"}, {"measurement": "Distribution of 125I-TGFα in the Tissues: Blood", "setting": "6 hrs.", "result": 0.13, "unit": "%"}, {"measurement": "Distribution of 125I-TGFα in the Tissues: Cecum", "setting": "6 hrs.", "result": 0.08, "unit": "%"}, {"measurement": "Distribution of 125I-TGFα in the Tissues: Colon", "setting": "6 hrs.", "result": 0.12, "unit": "%"}, {"measurement": "Distribution of 125I-TGFα in the Tissues: Esophagus", "setting": "6 hrs.", "result": 0.27, "unit": "%"}, {"measurement": "Distribution of 125I-TGFα in the Tissues: Kidney", "setting": "6 hrs.", "result": 0.27, "unit": "%"}, {"measurement": "Distribution of 125I-TGFα in the Tissues: Liver", "setting": "6 hrs.", "result": 0.24, "unit": "%"}, {"measurement": "Distribution of 125I-TGFα in the Tissues: Small Intestine", "setting": "6 hrs.", "result": 0.15, "unit": "%"}, {"measurement": "Distribution of 125I-TGFα in the Tissues: Stomach", "setting": "6 hrs.", "result": 1.06, "unit": "%"}, {"measurement": "Distribution of 125I-TGFα in the Tissues: Submaxillary Gland", "setting": "6 hrs.", "result": 0.77, "unit": "%"}, {"measurement": "Distribution of 125I-TGFα in the Tissues: Thyroid", "setting": "6 hrs.", "result": 0.88, "unit": "%"}, {"measurement": "Distribution of 125I-TGFα in the Tissues: Tongue", "setting": "6 hrs.", "result": 1.25, "unit": "%"}, {"measurement": "Distribution of 125I-TGFα in the Tissues: Cheek Pouch", "setting": "6 hrs.", "result": 84, "unit": "%"}, {"measurement": "Distribution of 125I-TGFα in the Tissues: Skin", "setting": "24 hrs.", "result": 0.13, "unit": "%"}, {"measurement": "Distribution of 125I-TGFα in the Tissues: Blood", "setting": "24 hrs.", "result": 0.22, "unit": "%"}, {"measurement": "Distribution of 125I-TGFα in the Tissues: Cecum", "setting": "24 hrs.", "result": 0.05, "unit": "%"}, {"measurement": "Distribution of 125I-TGFα in the Tissues: Colon", "setting": "24 hrs.", "result": 1.57, "unit": "%"}, {"measurement": "Distribution of 125I-TGFα in the Tissues: Esophagus", "setting": "24 hrs.", "result": 0.04, "unit": "%"}, {"measurement": "Distribution of 125I-TGFα in the Tissues: Kidney", "setting": "24 hrs.", "result": 0.24, "unit": "%"}, {"measurement": "Distribution of 125I-TGFα in the Tissues: Liver", "setting": "24 hrs.", "result": 0.59, "unit": "%"}, {"measurement": "Distribution of 125I-TGFα in the Tissues: Small Intestine", "setting": "24 hrs.", "result": 0.40, "unit": "%"}, {"measurement": "Distribution of 125I-TGFα in the Tissues: Stomach", "setting": "24 hrs.", "result": 1.23, "unit": "%"}, {"measurement": "Distribution of 125I-TGFα in the Tissues: Submaxillary Gland", "setting": "24 hrs.", "result": 0.77, "unit": "%"}, {"measurement": "Distribution of 125I-TGFα in the Tissues: Thyroid", "setting": "24 hrs.", "result": 2.84, "unit": "%"}, {"measurement": "Distribution of 125I-TGFα in the Tissues: Tongue", "setting": "24 hrs.", "result": 0.66, "unit": "%"}, {"measurement": "Distribution of 125I-TGFα in the Tissues: Cheek Pouch", "setting": "24 hrs.", "result": 21, "unit": "%"}]}
